Experimental data: article PMC9399999 (Nature Communications, 2022)

Biological target: Omicron RBD (SARS-CoV-2 Omicron BA.1 (B.1.1.529), S371L | S373P | S375F | K417N | G446S | S477N | E484A | Q493R | G496S | Q498R | …)
Test: SPR
Conditions: both partners purified

B1: S304 antibody (IgG1) (antibody, V domains shown)
VH: EVQLVESGGGLVQPGGSLRLSCAASGFTFSSYDMHWVRQTTGKGLEWVSTIGTAGDTYYPDSVKGRFTISREDAKNSLYLQMNSLRAGDTAVYYCARGDSSGYYYYFDYWGQGTLLTVSS
VL: DIQMTQSPSSLSAAVGDRVTITCRASQSIGSYLNWYQQKPGKAPKLLIYAASSLQSGVPSRFSGSGSGTDFTLTISSLQPEDFAIYYCQQSYVSPTYTFGPGTKVDIK
notes: IgG1
B1 showed a Kd of 1.01 nM.
